36 molecules from patent publication US20250145729A1 (DENALI THERAPEUTICS, published 2025) can be followed below.

Residue numbers refer to the chain shown, from its start. Names may count otherwise.

Usually Kd stands for the concentration at which binding is half-saturated. Lower therefore signals higher affinity.

T1: circularly permuted human TfR apical domain (human)
T1 construct: TfR residues 326-379 stand N-terminal to 194-296, loop 297-325 deleted; also called huTfR Apical Domain
T1 chain: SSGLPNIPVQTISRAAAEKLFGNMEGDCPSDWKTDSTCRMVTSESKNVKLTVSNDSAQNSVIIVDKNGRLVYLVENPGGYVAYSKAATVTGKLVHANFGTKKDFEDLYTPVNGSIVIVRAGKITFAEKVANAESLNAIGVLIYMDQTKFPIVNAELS

T2: circularly permuted cyno TfR apical domain (cynomolgus monkey)
T2 construct: same design as the human construct; also called cyTfR Apical Domain; cynomolgus TfR apical domain
T2 chain: T1 chain with R39K, S45N, N47S, R69G, Y108D, T109S, N153K, E155D

B1: 6.5.11.1 (Fc fusion)
chain: APEAAGGPSVFLFPPKPKDTLMISRTPEVTCVVVDVSHEDPEVKFNWYVDGVEVHNAKTKPREEQYNSTYRVVSVLTVLHQDWLNGKEYKCKVSNKALGAPIEKTISKAKGQPREPQVYTLPPSRDELTKNQVSLTCLVKGFYPSDIAVNWFSNGQIENNYKTTPPVLDSDGSFFLYSKLTVDKSRWQQGNLFACEVMHEALHNHYTYKLLSLSPGK
notes: P329G+LALA
B2: 6.5.11.5.42 (Fc fusion)
chain: B1 chain with N150Y, N154G, I157R
notes: P329G+LALA
B3: 42.8.96 (Fc fusion)
chain: B1 chain with N150E, N154E, G155A, Q156S, I157K, E158L, N159S
notes: bivalent; P329G+LALA
B4: 42.8.87 (Fc fusion)
chain: B1 chain with N150E, N154E, G155A, I157K, N159S
notes: bivalent; P329G+LALA
B5: 42.8.112 (Fc fusion)
chain: B1 chain with N150E, S153Y, N154G, I157K, E158L
notes: bivalent; P329G+LALA
B6: 42.8.137 (Fc fusion)
chain: B1 chain with N150E, S153Y, N154G, G155D, I157K, E158L, N159T
notes: bivalent; P329G+LALA
B7: 42.8.88 (Fc fusion)
chain: B1 chain with N150E, N154E, G155A, I157K, E158L
notes: bivalent; P329G+LALA
B8: 42.8.71 (Fc fusion)
chain: B1 chain with N150E, N154D, G155D, Q156S, I157K, E158L, N159T
notes: bivalent; P329G+LALA
B9: 42.8.114 (Fc fusion)
chain: B1 chain with N150E, S153Y, N154G, I157K, E158L, N159S
notes: bivalent; P329G+LALA
B10: 42.8.55 (Fc fusion)
chain: B1 chain with N150E, N154D, G155A, Q156S, I157K
notes: bivalent; P329G+LALA
B11: 42.8.16 (Fc fusion)
chain: B1 chain with N150E, N154G, G155A, I157K, E158L
notes: bivalent; P329G+LALA
B12: 42.2.3-1H (Fc fusion)
chain: B1 chain with N150E, S153Y, N154G, G155N, Q156A, I157K, N159T
notes: P329G+LALA
B13: 42.8.64 (Fc fusion)
chain: B1 chain with N150E, N154D, G155D, I157K, E158L
notes: bivalent; P329G+LALA
B14: 42.8.94 (Fc fusion)
chain: B1 chain with N150E, N154E, G155A, Q156S, I157K, E158L
notes: bivalent; P329G+LALA
B15: 42.8.17 (Fc fusion)
chain: B1 chain with N150E, N154G, G155A, I157K, E158L, N159T
notes: bivalent; P329G+LALA
B16: 42.8.63 (Fc fusion)
chain: B1 chain with N150E, N154D, G155D, I157K, N159S
notes: bivalent; P329G+LALA
B17: 42.2.1.2 (Fc fusion)
chain: B1 chain with N150E, S153Y, N154D, G155D, Q156S, I157K, E158L, N159T
notes: bivalent; P329G+LALA
B18: 42.8.56 (Fc fusion)
chain: B1 chain with N150E, N154D, G155A, Q156S, I157K, N159T
notes: bivalent; P329G+LALA
B19: 42.8.109 (Fc fusion)
chain: B1 chain with N150E, S153Y, N154G, I157K
notes: bivalent; P329G+LALA
B20: 42.8.128 (Fc fusion)
chain: B1 chain with N150E, S153Y, N154G, G155A, Q156S, I157K, N159T
notes: bivalent; P329G+LALA
B21: 42.8.77 (Fc fusion)
chain: B1 chain with N150E, N154E, I157K, E158L, N159T
notes: bivalent; P329G+LALA
B22: 42.8.151 (Fc fusion)
chain: B1 chain with N150E, S153Y, N154D, Q156S, I157K
notes: bivalent; P329G+LALA
B23: 42.8.95 (Fc fusion)
chain: B1 chain with N150E, N154E, G155A, Q156S, I157K, E158L, N159T
notes: bivalent; P329G+LALA
B24: 42.8.118 (Fc fusion)
chain: B1 chain with N150E, S153Y, N154G, Q156S, I157K, E158L
notes: bivalent; P329G+LALA
B25: 42.8.143 (Fc fusion)
chain: B1 chain with N150E, S153Y, N154G, G155D, Q156S, I157K, E158L, N159T
notes: bivalent; P329G+LALA
B26: 42.8.139 (Fc fusion)
chain: B1 chain with N150E, S153Y, N154G, G155D, Q156S, I157K
notes: bivalent; P329G+LALA
B27: 42.8.57 (Fc fusion)
chain: B1 chain with N150E, N154D, G155A, Q156S, I157K, N159S
notes: bivalent; P329G+LALA
B28: 42.8.113 (Fc fusion)
chain: B1 chain with N150E, S153Y, N154G, I157K, E158L, N159T
notes: bivalent; P329G+LALA
B29: 42.8.127 (Fc fusion)
chain: B1 chain with N150E, S153Y, N154G, G155A, Q156S, I157K
notes: bivalent; P329G+LALA
B30: 6.5.11.7.122 (Fc fusion)
chain: B1 chain with N150F, I157R
notes: bivalent; P329G+LALA
B31: 42.8.99 (Fc fusion)
chain: B1 chain with N150E, N154E, G155D, I157K, N159S
notes: bivalent; P329G+LALA
B32: 42.8.150 (Fc fusion)
chain: B1 chain with N150E, S153Y, N154D, I157K, E158L, N159S
notes: bivalent; P329G+LALA
B33: 42.8.149 (Fc fusion)
chain: B1 chain with N150E, S153Y, N154D, I157K, E158L, N159T
notes: bivalent; P329G+LALA
B34: 42.8.172 (Fc fusion)
chain: B1 chain with N150E, S153Y, N154D, G155D, I157K, E158L
notes: bivalent; P329G+LALA
B35: 42.8.110 (Fc fusion)
chain: B1 chain with N150E, S153Y, N154G, I157K, N159T
notes: bivalent; P329G+LALA
B36: 42.8.144 (Fc fusion)
chain: B1 chain with N150E, S153Y, N154G, G155D, Q156S, I157K, E158L, N159S
notes: bivalent; P329G+LALA

The first assay addresses T1, circularly permuted human TfR apical …. Kind of assay: SPR, supernatant, anti-Fab capture. The procedure: (§1) Clones were expressed in HEK293 cells. Supernatants were captured for SPR by GE Healthcare anti-human Fab capture kit and the affinity to human and cyno TfR apical domain was measured (Table 30). The clones in Table 30 were bivalent and each TfR-binding Fc polypeptide also contained P329G and LALA mutations.
On the technique in general: In SPR one partner is held on a chip, and binding of the other changes the refractive index at the surface.
As for B1, binding was characterised by a dissociation constant (Kd) of 10 µM.

B2 registered a Kd of 2 µM.

In the case of B3, binding was put at a Kd of 9.44 µM.

Regarding B4, the Kd came to 1.66 µM.

Molecule B5 yielded a Kd of 1.14 µM.

B6 registered a Kd of 1.18 µM.

In turn, B7 showed a Kd of 9.16 µM.

B8 came in with an equilibrium dissociation constant (Kd) of 3 µM.

The molecule B9 registered a Kd of 1.81 µM.

Turning to B10, binding was put at a Kd of 6.16 µM.

Molecule B11 gave a Kd of 7.81 µM.

On to B12, for which binding was characterised by a dissociation constant (Kd) of 0.22 µM.

B13 returned a dissociation constant Kd of 5.69 µM.

For B14, binding was put at a Kd of 4.07 µM.

Molecule B15 gave a Kd of 10.4 µM.

Molecule B16 displayed a Kd of 4.19 µM.

Regarding B17, the equilibrium dissociation constant (Kd) amounted to 0.507 µM.

B18 came in with a Kd of 4.83 µM.

In turn, B19 displayed a Kd of 2.02 µM.

B20 showed an equilibrium dissociation constant (Kd) of 0.654 µM.

On to B21, for which binding was put at a Kd of 8.1 µM.

Take B22: binding was characterised by a dissociation constant (Kd) of 1.51 µM.

Consider B23, for which the Kd worked out at 4.13 µM.

With B24, the dissociation constant Kd was 0.867 µM.

On to B25, for which the dissociation constant (Kd) came to 0.454 µM.

For the molecule B26, the Kd was 0.85 µM.

As for B27, the Kd is 4.9 µM.

As for B28, the dissociation constant (Kd) was found to be 1.61 µM.

B29: the dissociation constant (Kd) amounted to 0.633 µM.

As to B30, the dissociation constant (Kd) was determined as 4.6 µM.

In turn, B31 yielded an equilibrium dissociation constant (Kd) of 6.38 µM.

For B32, the affinity, expressed as Kd, was 2.65 µM.

B33 came in with a dissociation constant (Kd) of 2.38 µM.

As for B34, the Kd turned out to be 0.795 µM.

Molecule B35 had an equilibrium dissociation constant (Kd) of 1.76 µM.

Take B36: the affinity, expressed as Kd, was 0.47 µM.

A further assay concerns the target T2, circularly permuted cyno TfR apical …. Kind of assay: SPR, supernatant, anti-Fab capture. The procedure:
as §1
Molecule B3 displayed a dissociation constant Kd of 21.9 µM.

As for B5, the Kd came out at 13.3 µM.

For the molecule B6, binding was put at a Kd of 12.6 µM.

B8 displayed a Kd of 12.9 µM.

Molecule B9 yielded a Kd of 18.3 µM.

Molecule B12 showed a Kd of 2 µM.

For the molecule B14, the equilibrium dissociation constant (Kd) is 22.2 µM.

Take B16: the Kd was determined as 4.94 µM.

In turn, B17 had a dissociation constant Kd of 9.14 µM.

B18: the Kd is 28.4 µM.

In turn, B19 displayed a Kd of 13.6 µM.

With B20, the Kd is 5.45 µM.

For the molecule B22, binding was characterised by a dissociation constant (Kd) of 13.1 µM.

With B23, the Kd stood at 23.1 µM.

B24 came in with a dissociation constant Kd of 4.29 µM.

Consider B25, for which the Kd is 5.18 µM.

In turn, B26 gave a Kd of 6.1 µM.

In turn, B28 came in with a dissociation constant (Kd) of 34.3 µM.

Molecule B29 yielded a dissociation constant Kd of 3.04 µM.

As to B32, the Kd came out at 11.8 µM.

With B33, the dissociation constant (Kd) was determined as 16 µM.

For B35, the Kd worked out at 15.8 µM.

Take B36: the Kd turned out to be 3.87 µM.
